Article PMC12661434

Molecular target: StayRose (His-tagged StayGold bearing 3-aminotyrosine at Y58) (Cytaeis uchidae)
Test: SEC; Superdex 75 Increase 10/300 GL, 20 mM Hepes, 150 mM NaCl, pH 7.5, 0.8 ml/min; ~1 mg/ml (38 uM) protein loaded via a 0.5 ml loop

- stoichiometry N: 2
Substance: StayRose (His-tagged StayGold bearing 3-aminotyrosine at Y58)
